Test results as given in PMC11574021, “CEP192 localises mitotic Aurora-A activity by priming its interaction with TPX2” (The EMBO Journal, 2024).

Columns and labels:
Aurora-A = conditions: from fluorescence polarisation; ref (Burgess et al, [2015]; McIntyre et al, [2017]; Zorba et al, [2014]); cited from earlier work
Method: This is a higher affinity than observed in a previous study that used CEP192 proteins fused to MBP, a large protein tag that might have affected the interaction (Park et al, [2023]). For context, the affinity of Aurora-A for its other key mitotic partners are: TPX2_1-43 (Kd 0.3–2 μM from ITC) and TACC ...

[1] = tested on: Aurora-A-pT288 in U251 cells; test: Western blot densitometry of Aurora-A-pT288, mitotic U251 cells; assay type: cell-based, Homo sapiens; conditions: mitotic U251 (and RPE1) lysates, siRNA 48 h, in words
Method: For western blotting analysis of mitotic lysates, cells were synchronised in mitosis with 10 µM S-Trityl-L-cysteine (STLC, Bio-Techne, 2191-50), an Eg5 inhibitor, for 20 h prior to collecting by mitotic shake-off. For measuring monopolar spindle diameter and counting centriolar foci by immunofluorescence, cells were treated with 10 µM STLC for 1 h and 4 h prior to fixation, respectively.
As noted in the figures, the following drugs were incubated with cells for 30 min at 37 °C: Aurora-B-i ZM447439 2 µM [10 mM], PLK1-I BI2536 1 µM [10 mM] and Aurora-A-i MLN8237 [5 mM] was used at 250 and 500 nM in U251 and RPE1 cells, respectively. Drugs were resuspended in DMSO to the stock concentrations indicated in square brackets. BI2536 (HY-50698), MLN8237 (HY-10971) and ZM447439 (HY-10128) were all purchased from MedChemExpress. For western blotting, a 20-min pre-treatment with proteasome inhibitor (20 µM MG-132, MerckMillipore, 47490 [20 mM]) was required prior to the addition of DMSO control or kinase inhibitors. This prevented mitotic exit as a consequence of checkpoint override following Aurora-A and Aurora-B inhibitor addition.
Cells were lysed on ice for 30 min in lysis buffer (50 mM tris pH 8.0, 300 mM NaCl, 0.2%(v/v) NP-40, 10%(v/v) glycerol, protease inhibitor cocktail C, phosphatase inhibitor cocktail 3 (Sigma, 1:200 dilution), 100 nM okadaic acid (Enzo, ALX-350-003-C100)). Lysates were then centrifuged at 14,000 × g, 15 min, 4 °C, the supernatants were transferred to a fresh tube, and the pellet was discarded. Protein concentrations were measured by Bradford assay using Protein Assay Dye Reagent Concentrate (Bio-Rad Laboratories, 5000006). NuPage LDS sample buffer, supplemented with NuPAGE sample reducing agent (Invitrogen) were added prior to boiling for 10 min at 90 °C. […]
Densitometric quantification of western blots was also performed in ImageJ. Intensity was measured in a rectangular region of interest (ROI) around each band. […] An adjacent region was also measured to account for background intensity.

[2] = tested on: PPP1CA-pT320, PRC1-pT481 and Histone-H3-pS10 in U251 cells; test: Western blot, mitotic phosphorylations (PPP1CA-pT320, PRC1-pT481, Histone-H3-pS10), asynchronous U251; assay type: cell-based, Homo sapiens; conditions: asynchronous U251, siRNA 48 h
Method: Cells were lysed on ice for 30 min in lysis buffer (50 mM tris pH 8.0, 300 mM NaCl, 0.2%(v/v) NP-40, 10%(v/v) glycerol, protease inhibitor cocktail C, phosphatase inhibitor cocktail 3 (Sigma, 1:200 dilution), 100 nM okadaic acid (Enzo, ALX-350-003-C100)). Lysates were then centrifuged at 14,000 × g, 15 min, 4 °C, the supernatants were transferred to a fresh tube, and the pellet was discarded. Protein concentrations were measured by Bradford assay using Protein Assay Dye Reagent Concentrate (Bio-Rad Laboratories, 5000006). NuPage LDS sample buffer, supplemented with NuPAGE sample reducing agent (Invitrogen) were added prior to boiling for 10 min at 90 °C. Equal amounts of protein, between 8–20 µg/lane, were loaded into pre-cast 4–12% Bis-Tris gels (Invitrogen, NP0322BOX) and proteins separated in 1x MOPS buffer (Invitrogen) and transferred to nitrocellulose membrane (0.45 µM). Nitrocellulose was then blocked in 5% milk (wt/v) in TBS, 0.1% Tween (v/v) (TBST) for 1 h. Primary and secondary antibodies were diluted in 5% milk, TBST and incubated overnight at 4 °C or for 1 h at room temperature, respectively. Species-specific secondary antibodies conjugated to horseradish peroxidase (HRP) were used (anti-Mouse, Cytiva NA931V; anti-Rabbit, Cytiva NA934; anti-Sheep, Jackson 713-035-003). Membranes were washed for 1 h in TBST, changing the buffer five times, after each antibody incubation.
siRNA depletion was carried out by reverse transfection using oligofectamine (Thermo Scientific, 12252011) and lipofectamine RNAiMax (Thermo Scientific, 13778075), according to the manufacturer’s instructions, for U251 and RPE1 cells, respectively. For immunofluorescence, 1 × 10^5 cells were seeded in six-well plates and simultaneously transfected with 60 pmol siRNA duplex and 3 µl transfection reagent diluted in 200 µl Opti-MEM serum-free medium. Growth medium was added to a final volume of 2 ml. For western blotting, 1 × 10^6 cells were seeded in 10 cm dishes and transfected with 300 pmol siRNA duplex and 15 µl transfection reagent diluted in 1000 µl Opti-MEM. […]

[3] = target: FAM-CEP192 501–533 (human) (UniProt Q8TEP8); test: fluorescence polarisation; direct fluorescence anisotropy: Aurora-A diluted across the plate, 50 nM tracer FAM-CEP192 501–533; 25 mM HEPES pH 7.5, 150 mM NaCl, 2 mM DTT, 5 mM MgCl2, 0.01% Tween 20; 1 h at room temperature
[4] = target: T1, Aurora-A^CAKD (Aurora-A kinase domain, aa 122–403 C290A, C393A), unphosphorylated (human, UniProt O14965 122-403, C290A | C393A); test: fluorescence polarisation; competition: 10 μM unphosphorylated Aurora-A^CAKD preincubated with 100 nM FAM-TPX2 7-43, CEP192 competitor serially diluted; 25 mM HEPES pH 7.5, 150 mM NaCl, 2 mM DTT, 5 mM MgCl2, 0.01% Tween 20; conditions: both partners purified
T1 construct: Aurora-A kinase domain, human, residues 122-403, variant lacking surface cysteines; also called Aurora-A 122–403 C290A C393A; unphosphorylated Aurora-A^CAKD; source: E. coli RIL, co-expressed with lambda phosphatase, purified (HisTrap, TEV cleavage, SEC); not shown: His6, N-terminal, cleaved
T1 sequence (looked up): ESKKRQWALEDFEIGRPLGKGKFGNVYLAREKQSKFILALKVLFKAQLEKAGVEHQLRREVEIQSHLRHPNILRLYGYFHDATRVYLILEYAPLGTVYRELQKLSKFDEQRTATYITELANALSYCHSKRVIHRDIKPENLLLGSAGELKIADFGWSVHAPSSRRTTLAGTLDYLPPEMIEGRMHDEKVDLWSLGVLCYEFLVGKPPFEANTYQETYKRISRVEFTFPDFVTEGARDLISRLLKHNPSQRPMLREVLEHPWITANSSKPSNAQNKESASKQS

[5] = target: T2, unphosphorylated Aurora-A CAKD (Homo sapiens, UniProt O14965, C290A/C393A); test: Fluorescence anisotropy competition with FAM-TPX2 7-43; assay type: binding; conditions: competition with 100 nM FAM-TPX2 7-43, 10 μM unphosphorylated Aurora-A CAKD, n = 3 (Appendix Fig. S4E)
T2 construct: 10 μM Aurora-A kinase domain (phosphorylated or unphosphorylated C290A C393A 122–403); His (N, cleaved yes); made in house; host or cells: E. coli RIL, co-expressed with lambda phosphatase
T2 sequence (O14965 122-403 C290A/C393A): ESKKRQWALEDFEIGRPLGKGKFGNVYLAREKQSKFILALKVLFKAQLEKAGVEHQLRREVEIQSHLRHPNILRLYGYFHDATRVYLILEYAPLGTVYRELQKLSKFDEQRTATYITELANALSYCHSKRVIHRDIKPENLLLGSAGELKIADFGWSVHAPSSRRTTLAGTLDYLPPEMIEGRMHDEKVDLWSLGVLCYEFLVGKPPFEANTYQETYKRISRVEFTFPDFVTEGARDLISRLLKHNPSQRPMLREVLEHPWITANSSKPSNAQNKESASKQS
Method: Assays were performed in 25 mM HEPES pH 7.5, 150 mM NaCl, 2 mM DTT, 5 mM MgCl2, 0.01% Tween 20. For CEP192 and TPX2 competition assays 10 μM Aurora-A kinase domain (phosphorylated or unphosphorylated C290A C393A 122–403) was preincubated on ice with 100 nM FAM-TPX2 7-43 or 100 nM FAM-CEP192 501–533. For TACC3 competition, due to weaker binding, 25 μM Aurora-A kinase domain (phosphorylated or unphosphorylated C290A C393A 122–403) was preincubated with 100 nM FAM-TACC3 522-536. Serial dilutions of competitor (CEP192) were performed in triplicate into a low volume 384-well black plate, before the premixed Aurora-A and tracer were added. A control row included no tracer. Plates were left incubating for 1 h at room temperature before the fluorescence anisotropy was measured using a HIDEX plate reader, with excitation at 485 nm and emission at 535 nm. For direct binding experiments, the assay was performed as above, but the Aurora-A (122–403 C290A C393A or point mutants) was diluted across the plate from high to low concentration, before the addition of 50 nM tracer (FAM-CEP192 501–533) to three replicate rows. Buffer only was added to the control row.
Fluorescence anisotropy data were processed using Microsoft Excel to calculate intensity and anisotropy using the equation listed in (Yeo et al, [2013]). The IC50 and Kd values were calculated using Origin (OriginLab) where the data fitted to a sigmoid and are summarised in Appendix Table S3.

[6] = target: T3, phosphorylated Aurora-A^CAKD (Aurora-A 122–403 C290A C393A, not co-expressed with lambda phosphatase) (human, UniProt O14965 122-403, C290A | C393A, phosphorylated (sites of this preparation not printed in the text shown)); test: cell-based or functional assay
T3 sequence (looked up): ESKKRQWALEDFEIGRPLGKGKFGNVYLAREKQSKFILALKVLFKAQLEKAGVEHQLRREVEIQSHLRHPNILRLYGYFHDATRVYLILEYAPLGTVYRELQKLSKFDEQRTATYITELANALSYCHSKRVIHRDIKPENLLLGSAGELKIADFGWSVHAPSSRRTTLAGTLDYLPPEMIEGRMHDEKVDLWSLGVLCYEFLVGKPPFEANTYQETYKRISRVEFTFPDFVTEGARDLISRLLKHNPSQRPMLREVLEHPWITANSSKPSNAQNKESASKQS

[7] = target: T4, Aurora-A^M3KD (Aurora-A 122–403 C290A C393A D274N) (human, UniProt O14965 122-403, D274N | C290A | C393A); test: ITC; CEP192 442–533 titrated into Aurora-A kinase domain (by the legend); 25 °C; 20 mM tris pH 7.5, 200 mM NaCl, 10% glycerol, 5 mM MgCl2; two repeats; conditions: both partners purified
T4 construct: Aurora-A kinase domain, human, residues 122-403; also called Aurora-A kinase domain (122–403 C290A C393A D274N); source: E. coli, purified (HisTrap, TEV cleavage, SEC); not shown: His6, N-terminal, cleaved
T4 sequence (looked up): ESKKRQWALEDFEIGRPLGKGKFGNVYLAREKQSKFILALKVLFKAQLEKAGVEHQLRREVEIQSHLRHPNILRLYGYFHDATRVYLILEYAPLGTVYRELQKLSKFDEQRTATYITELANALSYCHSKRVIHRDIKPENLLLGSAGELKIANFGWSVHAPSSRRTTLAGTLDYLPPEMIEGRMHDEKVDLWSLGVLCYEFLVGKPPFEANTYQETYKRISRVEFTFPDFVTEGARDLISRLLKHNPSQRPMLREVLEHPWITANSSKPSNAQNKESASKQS

[8] = target: T1, Aurora-A^CAKD (Aurora-A kinase domain, …); test: fluorescence polarisation; competition: 25 μM Aurora-A kinase domain preincubated with 100 nM FAM-TACC3 522-536, CEP192 competitor serially diluted; 25 mM HEPES pH 7.5, 150 mM NaCl, 2 mM DTT, 5 mM MgCl2, 0.01% Tween 20; conditions: both partners purified

TACC3 519-563: TACC3 fragment, literature affinity (ELKEESFRDPAEVLGTGAEVDYLEQFGTSSFKESALRKQSLYLKF; UniProt Q9Y6A5 519-563, looked up, fragment)
Kd (Aurora-A): ~6 µM

5′-GGAUAUGGUUGAUCCUAUAtt-3′ [siBora]
activation loop phosphorylation (pT288) of Aurora-A in mitotic cell lysates [1]: no discernible effect
mitotic phosphorylations (PPP1CA-pT320, PRC1-pT481, Histone-H3-pS10) [2]: increased levels of mitotic phosphorylations

Aurora-A^KD R151A (Aurora-A 122–403 R151A) (from UniProt O14965 122-403) (domain or fragment)
Kd [3]: > 10 µM

B1: human CEP192 442–533 (domain or fragment, UniProt Q8TEP8 442-533, looked up)
chain: IWSPTCERRTCECHESIEKNKDKTDLPQSVVYQNEEGRWVTDLAYYTSFNSKQNLNVSLSDEMNEDFRSGSEAFDLIAQDEEEFNKEHQFIQ
notes: Codon-optimised template from GenScript (CEP192 1-1000); source: E. coli B834 RIL, purified (HisTrap, TEV cleavage, SEC); 15N- or 15N/13C-labelled in Rosetta E. coli for NMR; not shown: His6, N-terminal, cleaved; SUMO, N-terminal, cleaved
IC50 [4]: 4.2 µM
IC50 [5]: 3.33 µM
ADP-Glo, 10 nM phosphorylated Aurora-A^CAKD with kemptide: IC50 of partial inhibition of kinase activity [6]: 0.032 µM
Kd [7]: 0.072 µM
stoichiometry N [7]: 0.67
IC50 [8]: 5.7 µM

B2: human CEP192 468–533 L484D (domain or fragment, UniProt Q8TEP8 468-533, looked up)
chain: PQSVVYQNEEGRWVTDDAYYTSFNSKQNLNVSLSDEMNEDFRSGSEAFDLIAQDEEEFNKEHQFIQ
notes: source: E. coli B834 RIL, purified (HisTrap, TEV cleavage, SEC); not shown: His6, N-terminal, cleaved; SUMO, N-terminal, cleaved
IC50 [4]: 19.9 µM
ADP-Glo, 10 nM phosphorylated Aurora-A^CAKD with kemptide: IC50 of inhibition of kinase activity [6]: 0.22 µM
